Target: DNA polymerase mu (Polμ) wild type (Homo sapiens, UniProt Q9NP87 1-494)
Experiment: EMSA

Chain of DNA polymerase mu (Polμ) wild type (Q9NP87 whole entry): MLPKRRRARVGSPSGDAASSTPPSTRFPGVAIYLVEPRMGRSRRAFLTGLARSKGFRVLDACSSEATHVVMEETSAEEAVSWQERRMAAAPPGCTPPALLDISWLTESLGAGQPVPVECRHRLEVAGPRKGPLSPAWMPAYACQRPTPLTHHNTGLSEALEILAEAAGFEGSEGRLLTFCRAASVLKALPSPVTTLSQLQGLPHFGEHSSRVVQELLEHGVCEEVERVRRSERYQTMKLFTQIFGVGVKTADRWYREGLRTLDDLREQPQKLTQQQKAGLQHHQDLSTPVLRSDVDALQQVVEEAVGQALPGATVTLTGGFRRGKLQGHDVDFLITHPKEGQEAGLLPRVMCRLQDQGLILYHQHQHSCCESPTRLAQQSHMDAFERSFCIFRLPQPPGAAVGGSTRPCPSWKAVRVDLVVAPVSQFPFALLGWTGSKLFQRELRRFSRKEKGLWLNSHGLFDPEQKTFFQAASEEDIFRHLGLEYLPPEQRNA

B1: Blunt (P19+T19) (dsDNA)
DNA 1: GATCACAGTGAGTACAATA
DNA 2: TATTGTACTCACTGTGATC
  binding result: no binding

— PMC1636348
